Values joined by “and” are separate entries in the source; they are usually repeats but may differ in a detail not shown here. Equal values may be shown once.
How the values were obtained:
[1] = test system: bone; format: in vivo, BALB/c mice
Protocol: FIG. 3A illustrates a supine position, top CH-RGD, bottom CH-RAD 3 h post-injection. 22 nmol CH-RGD or CH-RAD was intravenously injected into 20-25 g hairless BALB/c mice (n=6, 3 males, 3 female). NIR-II imaging (200 ms, 1150LP, 808 nm 140 mW/cm^2 laser excitation) was taken at different time points post-injection (post-injection).
(§1) Teen-week old BALB/c mice (n=3 male and 3 female per group) were obtained from Charles River for bone imaging studies, teen-week old C57BL/6 female mice (n=4 per group) were obtained from Charles River for brain vessel studies, teen-week old NU/NU female mice (n=4 per group) were obtained from Charles River for leg vessel studies, teen-week old BALB/c male mice (n=4 per group) were obtained from Charles River and housed for another 42 weeks for lymph node and lymphatic vessel studies, eight-week old female NU/NU mice (n=3 per group) were obtained from Charles River for tumor targeting studies. Before vessel or tumor imaging, all mice were anaesthetized in a rodent anesthesia machine with 2 l min^−1 O2 gas mixed with 3% Isoflurane. Tail vein injection of contrast agents were carried with a catheter and synchronized with a camera that started continuous image acquisition simultaneously. The IV injected dose was a 200 μL bolus in a 1×PBS solution at specified concentrations. The ID injected dose was a 50 μL bolus in a 1×PBS solution at specified concentrations. During the time course of imaging the mouse was kept anaesthetized by a nose cone delivering 2 l min^−1 02 gas mixed with 3% isoflurane. The sample sizes of mice were selected based on previously reported studies. Mice were randomly selected from cages for all experiments. No blinding was performed.
(§2) Images were processed with ImageJ.

[2] = test system: U87MG tumor; conditions: mouse, in vivo, iv
Protocol: (§3) Then NIR-II (200 ms, 1000LP) or NIR-I (200 ms, 814-851BP) images were taken at different time points.
(§4) Nude mice were purchased from Charles River. U87MG cells were cultured in Dulbecco's modified Eagle medium containing high glucose (Gibco), which were supplemented with 10% fetal bovine serum and 1% penicillin-streptomycin. The cell was expanded in tissue culture dish and kept in a humidified atmosphere of 5% CO2 at 37° C. The medium was changed every other day. A confluent monolayer was detached with 0.5% trypsin, and dissociated into a single-cell suspension for inoculation. When the mice reached eight weeks in age, mice were inoculated with 1×10^6 U87MG cells on the right front shoulder. The tumor was allowed to grow for approximately 30 days before imaging, at which point they were approximately 30-120 mm^3 in volume.
(§5) Mice were placed on a stage with a venous catheter for IV injection of contrast and imaging agents. 0.5 mL syringe was used directly for ID injection. All NIR-II images were collected on a 640×512 pixel two-dimensional InGaAs array (Princeton Instruments, NIRvana TE 640). The excitation laser was an 808 nm laser diode at a power density of approximately 140 mW cm^−2. Emission was typically collected with 1000, 1050, 1100, 1150, 1200, 1250, 1300, 1350, 1400 nm LP filter (Thorlabs). 50 mm and 75 mm prime lens (Edmund optics) was used to obtain magnifications ranging of 1× (whole body) to 2.5× (high magnification) magnification by changing the relative position of camera, lens and animals. A binning of 1 and a variable exposure time were used for the InGaAs camera (640×512 pixel) to capture images in the NIR-II window. Images were processed with ImageJ.
(§6) All NIR-I images were collected A 1,344×1,024-pixel Hamamatsu silicon CCD detector (Hamamatsu C8484-03G02; pixel number: 1,344×1,024; readout noise: approximately 7 electron r.m.s.; dark current: 0.01 electrons per second per pixel) with an 814-851 nm bond pass filter (Edmund, #84-107). […]

[3] = test system: U87MG tumor; assay: Subcutaneous U87MG tumor imaging, IV vs ID
Protocol: as §3, §4, §5, §6

[4] = Photostability under continuous 808 nm laser excitation; format: physicochemical; conditions: 45 min continuous laser excitation (0.33 W/cm^2, 808 nm) in water, pH 7.4 PBS, FBS
Excerpt: The NIR fluorescence spectrum was taken using a home-built NIR spectroscopy setup. The excitation source was a 0.25 W 808 nm laser. The excitation laser was filtered with a combination of an 850/1,000/1,100/1,200/1,300 nm short-pass filters (Thorlabs). The excitation light was allowed to pass through the solution sample in a 1-cm-path-length cuvette (Starna Cells) and the resulting emission filtered through a 900 nm long-pass filter (Thorlabs) to reject the incident excitation laser light. The emitted light was directed into a spectrometer (Princeton Instruments, IsoPlane 160) equipped with a two-dimensional InGaAs array (Princeton Instruments, NIRvana TE 640). Spectra were corrected post-collection to account for the sensitivity of the detector and extinction feature of the filter. Photostability was determined by spiking CH-RGD NPs into FBS, 1× pH 7.4 PBS and DI water, and exposing it in a 1-cm-path-length cuvette (Starna Cells) to continuous 808 nm excitation at a power density of 0.33 W cm^−2 and taking images every 5 mins for approximately 45 min. Stability was determined by measuring the ROI and comparing the fluorescence intensity against the starting fluorescence signal.

[5] = In vitro serum stability in FBS; format: in vitro ADME; conditions: 37° C.
Protocol: Fetal Bovine Serum (FBS, Gibco® Catalog #26140) was used to dilute the CH-RGD PBS stock solution into 2 mL, 10 μM mixture solution. And the mixture was incubated at 37° C. in a cell culture incubator for one month. At each designated time point, 200 μL serum mixture were collected for DLS and TEM analysis.

[6] = test system: NIH/3T3 cells; assay: MTT cytotoxicity of CH-RGD NPs; format: cell-based
Protocol: The CH-RGD NPs toxicity was determined in vitro with a MTT assay (3-(4,5-dimethylthiazol-2-yl)-2,5-diphenyl tetrazolium bromide, Sigma-Aldrich, St. Louis, Mo.) on NIH/3T3 cells. Approximately 5,000 cells were incubated per well with 200 μL of DMEM growth medium and serially diluted CH-RGD NPs solution (n=6 for each concentration). The cells were kept at 37° C. in a humidified atmosphere containing 5% CO2 for 48 h in the presence of CH-RGD NPs at different concentrations. Immediately before addition of 20 μl of MTT (5 mg/mL), a colorimetric indicator of cell viability, the CH-RGD NPs-spiked medium was removed from each well plate and replaced with 180 μL fresh medium. After 4 h, the medium was carefully removed, 100 μL DMSO was added. Shaking for 10 mins, the color change was quantified using a microplate reader (TECAN Infinite M100) and taking absorbance readings at 570 nm with a reference wavelength of 650 nm. Cell viability was plotted as a fraction of the absorbance of control wells incubated without CH-RGD NPs.

[7] = Blood half-life measurement by NIR-II blood signal; format: in vivo; conditions: mouse, BALB/c mice
Protocol: Arrows indicate the blood vessel signal.
Half-life: approximately 776 min.

[8] = Liver signal decay after IV injection; format: in vivo, BALB/c mice; conditions: BALB/c, mouse, IV 10 nmol, read-out: elimination half-life from liver signal decay curve (converted)
Excerpt: IV inject 10 nmol CH-RGD NPs into BALB/c mice (n=5). NIR-II fluorescent imaging (10001p, 200 ms) of mice in a supine position were taken 1, 2, 3, 4, 8, 12, 32, 60 days (d) post injection. Of 5 mice, 4 gave the strongest signal 2 days post-injection. One mouse gave it 1 day post-injection. Each liver signal was normalized with the 2 days post-injection intensity. GraphPad Prism 6 one phase decay analysis was used to get the half-life approximately 7.65 d.

[9] = test system: U87MG tumor; assay: Double subcutaneous U87MG tumor imaging; format: in vivo, nude mice; conditions: IV 10 nmol
Protocol: FIG. 5A is a color photograph of a nude mouse with double xenograft brain tumor (U87MG) located on the left (approximately 1 mm) and right ([…]) shoulder. Intravenous injection of CH-RGD 10 nmol into the double tumor nude mice (n=3). NIR-II imaging (50 ms, 1000LP) at 3 days post-injection was taken at prone (FIG. 5B), right (FIG. 5C) and left (FIG. 5D) lateral decubitus.
The first right shoulder big tumor implantation is the same as above description. The difference is allowed the tumor grow for 2 to 3 weeks. When the right tumor diameter (ø) was between about 1 to 2 mm, 1×10^6 U87MG cells were injected into the mice left shoulder. After about 1 to 2 weeks, when the left shoulder tumor had grown to a diameter of about 1 mm and the right shoulder tumor was approximately 6 mm in diameter, the mouse was used for imaging.
as §2

[10] = test system: orthotopic bone tumors (143B); assay: Orthotopic 143B osteosarcoma imaging; format: in vivo, nude mice; conditions: ID injection
Protocol: Eight-week old female nude mice (Charles River) were anaesthetized using 2.0% isoflurane and positioned on a heating pad (42° C.). The shoulder was cleaned with 70% ethanol and betadine. 1×10^6 143B cells were first injected subcutaneously into the shoulder mice and the tumor allowed to grow to a diameter 5-8 mm solid tumor. The tumors were surgical resected and cut into 1×1×1 mm^3 pieces.
The right tibia of 8-week old NU/NU mice was opened in the central part by drilling with a dental drill for a 0.5 mm diameter hole. One tumor fragment was insert into the hole and contact with the bone marrow. Then the surgical wound was sutured. Mice were observed daily for tumor growth. Palpation, micro CT and 3T MRI were used to monitor the tumor growth. The mouse was used for imaging experiment, when the tumor size had reached to 3-5 mm diameter.

[11] = test system: metastatic tail bone tumor (143B); assay: Metastatic 143B bone tumor imaging; format: in vivo, mice; conditions: ID injection into left hind limb
Protocol: When the orthotopic 143B tumor grows to 3-4 mm diameter, surgery was performed to resect the tumor. Tumor was cut into pieces, and the visible tumor fragments were taken out. Then the surgical wound was sutured. Although the metastasis was not frequently occurring in mice tail, mice tail metastasis is the easiest diagnostic metastasis. By visual inspection, 143B tail metastasis mouse was chosen out. The mouse was used for imaging experiment when the tumor size reach to approximately 1 mm diameter.

[12] = test system: blood vessels; assay: Blood vessel imaging (brain, hind limb); format: in vivo, mice; conditions: NIR-I imaging
Protocol: FIGS. 4A-4W show blood vessel, lymphatic vessel, and lymph node imaging with CH-RGD (NIR-II), ICG and IR800-RGD (NIR-I). 15 nmol CH-RGD, CH-PEG, ICG, IR800-RGD were IV injected into hairless C57BL/6 mice (FIGS. 4A-4C) or nude mice (FIGS. 4D and 4E). NIR-II (FIGS. 4A, 4B, 4D, 1000 ms, 1350LP) and NIR-I imaging (FIGS. 4C, 4E, 200 ms, 814-851BP) was taken 10 min post-injection. FIGS. 4A-4C, C57BL/6 mice brain vessel images.
as §1, with “The IV injected dose was a 200 μL bolus in a 1×PBS solution at specified concentrations. The ID injected dose was a 50 μL bolus in a 1×PBS solution at specified concentrations. During the time course of imaging the mouse was kept anaesthetized by a nose cone delivering 2 l min^−1 02 gas mixed with 3% isoflurane. The sample sizes of mice were selected based on previously reported studies. Mice were randomly selected from cages for all experiments. No blinding was performed.” left out

[13] = test system: lymphatic vessels and lymph nodes; assay: Lymphatic vessel and lymph node imaging after ID injection; format: in vivo, BALB/c mice
Protocol: FIGS. 4F and 4G show cross-sectional fluorescence intensity profiles taken along red-dashed lines in (FIGS. 4D and 4E). Gaussian fits to the profiles are shown in red dashed curves. Vessel width measurements were taken from Gaussian curves. Lymphatic vessels and lymph node imaging: 3 nmol CH-RGD (FIGS. 4H-4J, 4Q, 4Y), ICG (FIGS. 4K and 4R) and IR800-RGD(s) ID into BALB/c mice (n=4 per probe). NIR-II (50 ms, 1100LP)/NIR-I (100 ms, 814-851BP) imaging was taken 1 h (FIGS. 4H-4J)/(FIG. 4K), 5 h (FIG. 4Q)/FIGS. 4R and 4S), 30 d (FIG. 4U) post ID, injection site (FIG. 4I).
IR800-RGD (3 nmol) was injected intradermally into hair-removed BALB/c mouse (n=4 per probe, male, 1 years old, weight approximately 42 g) tail base. NIR-1 imaging (100 ms, 814 approximately 851 bandpass) was taken 1 h, 3 h, 5 h post-injection. Fluorescent signal appears in mice bladder from 1 h post-injection.
as §1, with “The sample sizes of mice were selected based on previously reported studies. Mice were randomly selected from cages for all experiments. No blinding was performed.” left out

[14] = literature value; cited from earlier work
[15] = in DCE; cited from earlier work

For CH-c(RADyk) [CH-RAD], the bone accumulation ([1]; after 6 h post-injection) was “no dramatic accumulation in bone”, the “final concentration in bone by fluorescent intensity, relative to CH-RGD NPs” value ([1]; mouse, in vivo) was “about half that of CH-RGD NPs” and the “time of maximum tumor fluorescence and TBR” value [2] was 1 days. For the same compound, the “mean tumor fluorescent intensity” value ([3]; IV administration) was 22 k and the “ID versus IV injection comparison” value ([3]; mouse, in vivo, iv) was “better TBR through ID injection”.

In the case of `N=C(N)NCCC[C@@H]1NC(=O)[C@H](CCCCNC(=O)CCc2ccc(N(c3ccc(CCC(=O)O)cc3)c3ccc(-c4c5c(c(-c6ccc(N(c7ccc(CCC(=O)O)cc7)c7ccc(CCC(=O)O)cc7)cc6)c6nsnc46)N=S=N5)cc3)cc2)NC(=O)[C@@H](Cc2ccc(O)cc2)NC(=O)[C@H](CC(=O)O)NC(=O)CNC1=O` [CH-RGD, CH-c(RGDyk)], the photostability [4] is reported as “remains stable”, the “time NPs stable in FBS before degrading into smaller NPs” value [5] is reported as “up to 2 weeks” and the toxicity [6] is reported as “No obvious toxicity”. The “time BAT could be visualized” value ([1]; mouse, in vivo) was 10 days, the “time bone signal still visualized, ex-vivo imaging” value ([1]; mouse, in vivo) was “up to 45 days” and the “time bone signal still visualized, in vivo imaging” value ([1]; mouse, in vivo) was 3 days. The half-life [7] was roughly 12.9 h, the half-life [8] was roughly 184 h and the “time of peak fluorescence intensity, large tumor” value [9] was 4 days. The “time tumor fluorescence detectable, smaller tumor” value ([9]; approximately 1 mm tumor) was 4 h, the “time tumor fluorescence detectable, larger tumor” value ([9]; approximately 6 mm tumor) was “approximately 0.5 h” and the “time tumor still identifiable” value [10] was 7 days. For the same compound, the “time tumors identified post-injection” value [11] was 1 days.

For `CC1(C)C(/C=C/C=C/C=C/C=C2\N(CCCCS(=O)(=O)O)c3ccc4ccccc4c3C2(C)C)=[N+](CCCCS(=O)(=O)[O-])c2ccc3ccccc3c21` [ICG, indocyanine green], the blood vessel detection [12] was “only the largest brain blood vessels could be detected”, the “SBR, subiliac lymph node” value ([13]; 5 h after ID injection) was “approximately 3” and the “FWHM, subiliac lymph node” value ([13]; 5 h after ID injection, Gaussian fitting) was 2.8 mm and 2.803 mm. For the same compound, the “width of lymphatic vessels detected” value ([13]; ID injection) was “greater than 400 μm” and the blood half-life [14] was 3 to 5 min.

For `ClC1=C(/C=C/c2cc(-c3ccccc3)[s+]c3ccccc23)CCC/C1=C\C=C1/C=C(c2ccccc2)Sc2ccccc21.[O-][Cl+3]([O-])([O-])[O-]` [IR-26], the “quantum yield of reference fluorophore” value [15] is listed as 0.05%.

— US20200023081A1, “SELF-ASSEMBLING CYCLOPEPTIDE-DYE COMPOUNDS, FORMULATIONS THEREOF, AND USES THEREOF” (The Board of Trustees of the Leland Stanford Junior …, priority 2018, published 2020)
